# Experimental data from article PMC10663602.
# How the values were obtained:
# [1] = target: hFcα-tFcµ-chi1 (human | Oncorhynchus mykiss (rainbow trout)); test: SEC; preparative SEC (Superose 6 Increase 10/300) after Ni-NTA; share of pIg and mIg in the total protein purified (Supplementary Fig. 6)
# [2] = target: hFcα-tFcµ-chi2 (human | Oncorhynchus mykiss (rainbow trout)); test: as above
Binder,percent of the total protein purified that is pIg [1] [%],percent of the total protein purified that is pIg [2] [%]
"hFcα-tFcµ-chi1 (protein, here or on the partner: N-glycosylated; polymeric, about a dimer by SEC-MALS. Table prints the same sequence for chi1 and chi2 / N-glycosylated; polymeric, about a dimer by SEC-MALS. Table prints the same sequence for chi1 a) CHPRLSLHRPALEDLLLGSEANLTCTLTGLRDASGVTFTWTPSSGKSAVQGPPERDLCGCYSVSSVLPGCAEPWNHGKTFTCTAAYPESKTPLTATLSKSGNTFRPEVHLLPPPSEELALNELVTLTCLARGFSPKDVLVRWLQGSQELPREKYLTWASRQEPSQGTTTFAVTSILRVAAEDWKKGDTFSCMVGHEALPLAFTNIIMRTIDRTSNQPNLVNLSLNVPQRCMAQ",< 30,–
"hFcα-tFcµ-chi2 (protein, here or on the partner: N-glycosylated; P1 about a tetramer, P2 monomer. Table prints the same sequence for chi1 and chi2 / N-glycosylated; P1 about a tetramer, P2 monomer. Table prints the same sequence for chi1 and chi2) CHPRLSLHRPALEDLLLGSEANLTCTLTGLRDASGVTFTWTPSSGKSAVQGPPERDLCGCYSVSSVLPGCAEPWNHGKTFTCTAAYPESKTPLTATLSKSGNTFRPEVHLLPPPSEELALNELVTLTCLARGFSPKDVLVRWLQGSQELPREKYLTWASRQEPSQGTTTFAVTSILRVAAEDWKKGDTFSCMVGHEALPLAFTNIIMRTIDRTSNQPNLVNLSLNVPQRCMAQ",–,< 30
